Laboratory results taken from the supplement of paper PMC7877785.
± gives the uncertainty stated by the source.

Test: self-splicing fitness, log relative to wild type (ln ratio); higher = more splicing; Tetrahymena group I intron in knt gene, E. coli kanamycin selection, DiMSum; sequences stand for … in CUCUCU…GGAGGGAAAAGUUAUCAGGCAUGCACCUGGUAGCUAGUCUUUAAACCAAUAGAUUGCAUCGGUUUAAAAGGCAAGACCGUCAAAUUGCGGGAAAGGGGUCAACAGCCGUUCAGUACCAAGUCUCAGGGGAAACUUUGAGAUGGCCUUGCAAAGGGUAUGGUAAUAAGCUGACGGACAUGGUCCUAACCACGCAGCCAAGUCCUAAGUCAACAGAUCUUCUGUUGAUAUGGAUGCAGUUCACAGACUAAAUGUCGGUCGGGGAAGAUGUAUUCUUCUCAUAAGAUAUAGUCGGACCUCUCCUUAAUGGGAGCUAGCGGAUGAAGUGAUGCAACACUGGAGCCGCUGGGAACUAAUUUGUAUGCGAAAGUAUAUUGAUUAGUUUUGGAGUACUCGUGGUCG
Summary of the method: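 Pooled colonies went to amplicon sequencing on an Illumina HiSeq 2500 after six replicate transformations. The plates were LB agar with 100 μg/mL carbenicillin, 50 μM IPTG and 0.2% rhamnose, with or without 25 μg/mL kanamycin, incubated overnight at 37°C or 30°C. The E. coli BL21(DE3) library had all eight P1ex-region intron nucleotides randomised, the intron placed in the knt kanamycin-resistance gene on pET-22b(+). DiMSum fitness is the error-weighted combination of replicate fold changes, kanamycin against none, normalised to wild type.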

Row | Sequence | self-splicing fitness (ln) (30 °C) | self-splicing fitness (ln) (37 °C)
1 | CAGGAGCAAUAUUACGCACG | -1.71 ± 0.088 | 0.544 ± 0.15
2 | CAGGAGCAAUAUUACGCGCG | -1.45 ± 0.14 | -0.0818 ± 0.14
3 | CAGGAGCAAUAUUACGCUAA | -3.29 ± 0.5 | -1.19 ± 0.41
4 | CAGGAGCAAUAUUACGCUAC | -1.78 ± 0.4 | –
5 | CAGGAGCAAUAUUACGCUAU | -3.39 ± 0.4 | -2.39 ± 0.24
6 | CAGGAGCAAUAUUACGGAAA | -2.58 ± 0.14 | -2.59 ± 0.23
7 | CAGGAGCAAUAUUACGGAAU | -2.62 ± 0.29 | -2.58 ± 0.39
8 | CAGGAGCAAUAUUACGGAGU | -2.74 ± 0.17 | -2.21 ± 0.25
9 | CAGGAGCAAUAUUACGGAUC | -4.29 ± 0.23 | -3.84 ± 0.34
10 | CAGGAGCAAUAUUACGGAUG | -2.46 ± 0.13 | -2.02 ± 0.17
11 | CAGGAGCAAUAUUACGGCGC | -3.61 ± 0.36 | -3.31 ± 0.16
12 | CAGGAGCAAUAUUACGGGCG | -0.762 ± 0.099 | 0.0758 ± 0.14
13 | CAGGAGCAAUAUUACGGUCA | -2.39 ± 0.3 | -1.56 ± 0.32
14 | CAGGAGCAAUAUUACGUAGU | -3.42 ± 0.17 | -1.55 ± 0.13
15 | CAGGAGCAAUAUUACGUCAA | -3.36 ± 0.2 | -3.44 ± 0.33
16 | CAGGAGCAAUAUUACGUCUC | – | -3.07 ± 0.3
17 | CAGGAGCAAUAUUACGUGUC | -3.59 ± 0.21 | -3.03 ± 0.18
18 | CAGGAGCAAUAUUACGUUCG | -0.032 ± 0.12 | 0.338 ± 0.15
19 | CAGGAGCAAUAUUACGUUGA | -3.22 ± 0.37 | -3.85 ± 0.42
20 | CAGGAGCAAUAUUACGUUUA | -3.29 ± 0.15 | -2.44 ± 0.15
21 | CAGUAGCAAUAUUACGAAGU | -0.925 ± 0.18 | -1.82 ± 0.27
22 | CAGUAGCAAUAUUACGACAU | -3.226 ± 0.023 | -1.83 ± 0.036
23 | CAGUAGCAAUAUUACGAGCA | -2.59 ± 0.3 | -2.3 ± 0.27
24 | CAGUAGCAAUAUUACGAUAU | -2.7 ± 0.2 | -1.88 ± 0.21
25 | CAGUAGCAAUAUUACGAUCU | -1.52 ± 0.15 | -1.15 ± 0.19

Row | Sequence | self-splicing fitness (ln) (30 °C) | self-splicing fitness (ln) (37 °C)
26 | CAGUAGCAAUAUUACGAUUG | -1.73 ± 0.083 | -0.648 ± 0.11
27 | CAGUAGCAAUAUUACGCAAU | -1.7 ± 0.39 | –
28 | CAGUAGCAAUAUUACGCACU | -2.19 ± 0.18 | -1.34 ± 0.17
29 | CAGUAGCAAUAUUACGCAUU | -1.49 ± 0.18 | -2.5 ± 0.22
30 | CAGUAGCAAUAUUACGCCUG | -2.42 ± 0.25 | -2.46 ± 0.44
31 | CAGUAGCAAUAUUACGCGUU | -2.21 ± 0.23 | -1.64 ± 0.23
32 | CAGUAGCAAUAUUACGCUCG | -0.354 ± 0.12 | -0.439 ± 0.17
33 | CAGUAGCAAUAUUACGCUUA | -0.683 ± 0.21 | -0.832 ± 0.19
34 | CAGUAGCAAUAUUACGGAGG | -1.61 ± 0.094 | -0.514 ± 0.12
35 | CAGUAGCAAUAUUACGGAGU | -3.34 ± 0.36 | -2.67 ± 0.26
36 | CAGUAGCAAUAUUACGGCCU | -3.02 ± 0.2 | -1.67 ± 0.17
37 | CAGUAGCAAUAUUACGGCGG | -0.246 ± 0.081 | -0.627 ± 0.091
38 | CAGUAGCAAUAUUACGGCUA | -1.11 ± 0.15 | -1.21 ± 0.16
39 | CAGUAGCAAUAUUACGGCUU | -1.58 ± 0.16 | -1.01 ± 0.14
40 | CAGUAGCAAUAUUACGUAUC | -3.18 ± 0.33 | -2.2 ± 0.25
41 | CAGUAGCAAUAUUACGUAUG | -2.06 ± 0.11 | -1.93 ± 0.16
42 | CAGUAGCAAUAUUACGUGGA | -2.9 ± 0.26 | -3.63 ± 0.42
43 | CAGUAGCAAUAUUACGUGUU | -3.39 ± 0.22 | -2.78 ± 0.19
44 | CAUAAGCAAUAUUACGAAAG | -1.13 ± 0.09 | -0.268 ± 0.12
45 | CAUAAGCAAUAUUACGAACC | – | -1.26 ± 0.35
46 | CAUAAGCAAUAUUACGAAGC | -3.09 ± 0.44 | –
47 | CAUAAGCAAUAUUACGACUG | -0.582 ± 0.072 | -0.476 ± 0.1
48 | CAUAAGCAAUAUUACGAGCU | -4 ± 0.34 | -2.76 ± 0.3
49 | CAUAAGCAAUAUUACGAUCC | -3.25 ± 0.23 | -2.71 ± 0.32
50 | CAUAAGCAAUAUUACGAUGG | 0.0378 ± 0.065 | -0.159 ± 0.093

Row | Sequence | self-splicing fitness (ln) (30 °C) | self-splicing fitness (ln) (37 °C)
51 | CAUAAGCAAUAUUACGCAUU | -3.5 ± 0.18 | -1.35 ± 0.17
52 | CAUAAGCAAUAUUACGCCGC | -2.82 ± 0.38 | -1.59 ± 0.47
53 | CAUAAGCAAUAUUACGGACA | -3.09 ± 0.25 | -2.11 ± 0.19
54 | CAUAAGCAAUAUUACGGAUU | -3.15 ± 0.19 | -2.25 ± 0.23
55 | CAUAAGCAAUAUUACGGCCG | 0.39 ± 0.15 | 0.125 ± 0.16
56 | CAUAAGCAAUAUUACGGCGU | -2.7 ± 0.15 | -0.836 ± 0.12
57 | CAUAAGCAAUAUUACGGGAU | -3.51 ± 0.16 | -2.3 ± 0.2
58 | CAUAAGCAAUAUUACGGGCC | – | -1.25 ± 0.36
59 | CAUAAGCAAUAUUACGGGUC | -3.31 ± 0.24 | -2.97 ± 0.28
60 | CAUAAGCAAUAUUACGUAAA | -3.55 ± 0.25 | -2.11 ± 0.17
61 | CAUAAGCAAUAUUACGUAGG | -0.808 ± 0.066 | -0.719 ± 0.084
62 | CAUAAGCAAUAUUACGUAUC | -2.78 ± 0.2 | -2.72 ± 0.25
63 | CAUCAGCAAUAUUACGAAGU | -3.41 ± 0.18 | -1.52 ± 0.14
64 | CAUCAGCAAUAUUACGCCGA | -2.57 ± 0.32 | -1.79 ± 0.31
65 | CAUCAGCAAUAUUACGCUAC | -3.62 ± 0.27 | -3.33 ± 0.46
66 | CAUCAGCAAUAUUACGCUCU | -3.31 ± 0.19 | -1.66 ± 0.17
67 | CAUCAGCAAUAUUACGCUUA | -1.77 ± 0.13 | -0.562 ± 0.11
68 | CAUCAGCAAUAUUACGCUUC | -2.2 ± 0.18 | -0.251 ± 0.12
69 | CAUCAGCAAUAUUACGGAAU | -2.46 ± 0.12 | -2.11 ± 0.11
70 | CAUCAGCAAUAUUACGGACU | -3.78 ± 0.22 | -0.896 ± 0.13
71 | CAUCAGCAAUAUUACGGAUG | -4 ± 0.14 | -2.94 ± 0.14
72 | CAUCAGCAAUAUUACGGCAG | -0.68 ± 0.076 | 0.196 ± 0.09
73 | CAUCAGCAAUAUUACGGGUG | -3.28 ± 0.14 | -2.71 ± 0.2
74 | CAUCAGCAAUAUUACGGUCC | -1.37 ± 0.2 | -0.885 ± 0.29
75 | CAUCAGCAAUAUUACGGUGC | -3.55 ± 0.43 | -3.74 ± 0.46

Row | Sequence | self-splicing fitness (ln) (30 °C) | self-splicing fitness (ln) (37 °C)
76 | CAUCAGCAAUAUUACGGUGU | -4.64 ± 0.27 | -1.77 ± 0.12
77 | CAUCAGCAAUAUUACGUCGA | -3 ± 0.21 | -2.66 ± 0.24
78 | CAUGAGCAAUAUUACGAAAG | -1.36 ± 0.11 | -1.18 ± 0.14
79 | CAUGAGCAAUAUUACGAACG | -0.482 ± 0.082 | -0.421 ± 0.088
80 | CAUGAGCAAUAUUACGAAGC | – | -0.241 ± 0.49
81 | CAUGAGCAAUAUUACGAGAC | -3.32 ± 0.32 | -1.35 ± 0.3
82 | CAUGAGCAAUAUUACGAGGG | -3.79 ± 0.22 | -1.03 ± 0.14
83 | CAUGAGCAAUAUUACGAGUA | -2.36 ± 0.21 | -1.12 ± 0.24
84 | CAUGAGCAAUAUUACGCGAU | -1.87 ± 0.18 | -1.61 ± 0.32
85 | CAUGAGCAAUAUUACGCGGA | -2.6 ± 0.2 | -1.64 ± 0.17
86 | CAUGAGCAAUAUUACGCGUU | -4.13 ± 0.42 | -2.35 ± 0.26
87 | CAUGAGCAAUAUUACGCUUU | – | -3.02 ± 0.24
88 | CAUGAGCAAUAUUACGGAGC | -3.21 ± 0.25 | -3.46 ± 0.35
89 | CAUGAGCAAUAUUACGGCCC | -2.29 ± 0.29 | –
90 | CAUGAGCAAUAUUACGGCCG | -1.25 ± 0.12 | -0.62 ± 0.16
91 | CAUGAGCAAUAUUACGGCGC | -3.56 ± 0.25 | -4.32 ± 0.36
92 | CAUGAGCAAUAUUACGGGAU | -3.49 ± 0.3 | –
93 | CAUGAGCAAUAUUACGUACG | -0.969 ± 0.074 | 0.257 ± 0.1
94 | CAUGAGCAAUAUUACGUAGG | -1.82 ± 0.08 | -1.46 ± 0.093
95 | CAUGAGCAAUAUUACGUCGC | -3.59 ± 0.29 | -2.13 ± 0.42
96 | CAUGAGCAAUAUUACGUGGC | -3.55 ± 0.25 | -2.46 ± 0.24
97 | CAUGAGCAAUAUUACGUUAG | -1.86 ± 0.081 | -1.11 ± 0.082
98 | CAUUAGCAAUAUUACGACUG | -0.158 ± 0.079 | 0.262 ± 0.092
